# Measurements reported in patent publication US20080009025A1 (published 2008).
# B1: GST-PDK1[I119A] (enzyme, not shown: a dimerising Fc or GST; small tags and cut ends)
# chain: MARTTSQLYDAVPIQSSVVLCSCPSPSMVRTQTESSTPPGIPGGSRQGPAMDGTAAEPRPGAGSLQHAQPPPQPRKKRPEDFKFGKILGEGSFSTVVLARELATSREYAIKILEKRHIAKENKVPYVTRERDVMSRLDHPFFVKLYFTFQDDEKLYFGLSYAKNGELLKYIRKIGSFDETCTRFYTAEIVSALEYLHGKGIIHRDLKPENILLNEDMHIQITDFGTAKVLSPESKQARANSFVGTAQYVSPELLTEKSACKSSDLWALGCIIYQLVAGLPPFRAGNEYLIFQKIIKLEYDFPEKFFPKARDLVEKLLVLDATKRLGCEEMEGYGPLKAHPFFESVTWENLHQQTPPKLTAYLPAMSEDDEDCYGNYDNLLSQFGCMQVSSSSSSHSLSASDTGLPQRSGSNIEQYIHDLDSNSFELDLQFSEDEKRLLLEKQAGGNPWHQFVENNLILKMGPVDKRKGLFARRRQLLLTEGPHLYYVDPVNKVLKGEIPWSQELRPEAKNFKTFFVHTPNRTYYLMDPSGNAHKWCRKIQEVWRQRYQSHPDAAVQ
# Target: T1, PIFtide (24 residue synthetic peptide encompassing the PDK1 binding site on PIF) (human)
# T1 construct: also called wild type PIF peptide; 24 residue PIF peptide
# T1 peptide: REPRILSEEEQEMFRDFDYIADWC
# Test: method not stated
binder,measurement,value
B1,fold decrease in affinity (against wild type PDK1),~10 fold
